From article PMC7949025, “Biophysical characterization of the ETV6 PNT domain polymerization interfaces” (The Journal of Biological Chemistry, 2021) come the findings set out here.

The Kd is a measure of binding affinity in units of concentration. A high value points to a looser complex. As a reminder, the koff is the first-order rate constant of dissociation. Lower therefore signals a long-lived complex. The term kon denotes a measure of how fast the partners come together. Read a high kon as fast association.

The assay addresses T1, biotinylated A93D-PNT domain (ETV6 residues 43-135, A93D, with Avitag) (human, UniProt P41212 43-135, A93D, biotin on the Avitag (~50 to 95% biotinylated)).
T1 construct: ETV6, human, residues 43-135; made from the V112E construct by introducing A93D and E112V; also called biotinylated A93D-PNT domain ligand; A93D-PNT domain ligand; source: E. coli BL21 (λDE3) co-transformed with pET21a-BirA, purified (Ni-NTA, thrombin cleavage); not shown: His6, N-terminal, cleaved; Avitag, N-terminal, kept
T1 sequence (looked up): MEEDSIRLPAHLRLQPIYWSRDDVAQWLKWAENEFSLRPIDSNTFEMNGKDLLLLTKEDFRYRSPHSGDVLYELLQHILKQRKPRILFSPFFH
The assay can be described thus: SPR; biotinylated A93D-PNT domain ligand captured on streptavidin Sensor Chip SA, PNT domain analytes flowed; Biacore X100, 25 °C, HBS-EP+ (10 mM HEPES, 150 mM NaCl, 3 mM EDTA, 0.05% v/v Tween-20, pH 7.4); analyte 0.2-60 nM, re-run at 20-6000 nM if KD > 60 nM. The note with it: both partners purified. The gist of the method: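 In a Biacore X100 at 25 °C, a streptavidin Sensor Chip SA captured biotinylated ETV6 PNT domain (residues 43-135, Avitag) diluted to 50 μg/ml in HBS-EP+, and PNT domain analytes were injected at 0.2-60 nM, or at 20-6000 nM when binding was weaker. Rate and equilibrium dissociation constants came from the Biacore kinetics/affinity software wizard.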
Background: Surface plasmon resonance follows binding to a sensor surface in real time, without labels.

B1: Y104A-V112E-PNT domain (domain or fragment, human, UniProt P41212 40-125, looked up)
chain: ALRMEEDSIRLPAHLRLQPIYWSRDDVAQWLKWAENEFSLRPIDSNTFEMNGKALLLLTKEDFRARSPHSGDELYELLQHILKQRK
notes: ETV6 PNT domain, human; source: E. coli BL21 (λDE3), purified (Ni-NTA, thrombin cleavage); not shown: His6, N-terminal, cleaved
Regarding B1, binding was characterised by a dissociation constant (Kd) of 21 nM, the dissociation rate constant (koff) was found to be 0.015 s⁻¹ and the kon was found to be 730000 M⁻¹ s⁻¹.
